Earlier results in publication PMC6143667.
pKd: −log10 of the molar value.

Biological target: PKA catalytic subunit (UniProt P17612)

- pKd: 10.00
Substance: PKA regulatory subunit RII (from UniProt P31323)
